The chains are these.
B1: Tumor protein 63, residues 545 to 610; numbered along this chain, Q9H3D4 (parent)
chain: TDCSIVSFLARLGCSSCLDYFTTQGLTTIYQIEHYSMDDLASLKIPEQFRHAIWKGILDHRQLHEF

± gives the uncertainty stated by the source.

Variants of B1 are the subject of this data set. Nature of the data set: abundance fitness (aPCA) (normalised: wild type 0, dead -1); higher = more abundant; growth selection in yeast, the domain comes from the species named. The conditions noted are these: Homo sapiens.
Turning to TDCSIVSFLARLGCSSCLDYFTTQGLTTIYQIEHYSMDDLALLKIPEQFRHAIWKGILDHRQLHEF, the abundance fitness was -0.01 ± 0.021. TDCSIVSFLARLGCSSCLDYFTTQGLTTIYQIEHYSMDDLACLKIPEQFRHAIWKGILDHRQLHEF: the abundance fitness was -0.061 ± 0.035. Next, TDCSIVSFLARLGCSSCLDYFTTQGLTTIYQIEHYSMDDLAPLKIPEQFRHAIWKGILDHRQLHEF: -0.176 ± 0.028; TDCSIVSFLARLGCSSCLDYFTTQGLTTIYQIEHYSMDDLAALKIPEQFRHAIWKGILDHRQLHEF: -0.019 ± 0.029. As to TDCSIVSFLARLGCSSCLDYFTTQGLTTIYQIEHYSMDDLADLKIPEQFRHAIWKGILDHRQLHEF, the abundance fitness came to 0.008 ± 0.041. Next, TDCSIVSFLARLGCSSCLDYFTTQGLTTIYQIEHYSMDDLAHLKIPEQFRHAIWKGILDHRQLHEF: -0.011 ± 0.021; TDCSIVSFLARLGCSSCLDYFTTQGLTTIYQIEHYSMDDLAGLKIPEQFRHAIWKGILDHRQLHEF: 0.051 ± 0.03. For the variant TDCSIVSFLARLGCSSCLDYFTTQGLTTIYQIEHYSMDDLANLKIPEQFRHAIWKGILDHRQLHEF, the abundance fitness was 0.013 ± 0.025. Take TDCSIVSFLARLGCSSCLDYFTTQGLTTIYQIEHYSMDDLAELKIPEQFRHAIWKGILDHRQLHEF: the abundance fitness turned out to be 0.008 ± 0.026. Then TDCSIVSFLARLGCSSCLDYFTTQGLTTIYQIEHYSMDDLAMLKIPEQFRHAIWKGILDHRQLHEF, with -0.001 ± 0.023; and TDCSIVSFLARLGCSSCLDYFTTQGLTTIYQIEHYSMDDLAKLKIPEQFRHAIWKGILDHRQLHEF, with 0 ± 0.043. Then TDCSIVSFLARLGCSSCLDYFTTQGLTTIYQIEHYSMDDLAILKIPEQFRHAIWKGILDHRQLHEF, with 0.004 ± 0.034; and TDCSIVSFLARLGCSSCLDYFTTQGLTTIYQIEHYSMDDWASLKIPEQFRHAIWKGILDHRQLHEF, with -0.764 ± 0.047; and TDCSIVSFLARLGCSSCLDYFTTQGLTTIYQIEHYSMDDRASLKIPEQFRHAIWKGILDHRQLHEF, with -1.01 ± 0.067.

TDCSIVSFLARLGCSSCLDYFTTQGLTTIYQIEHYSMDDMASLKIPEQFRHAIWKGILDHRQLHEF: the abundance fitness is -0.134 ± 0.041. Then TDCSIVSFLARLGCSSCLDYFTTQGLTTIYQIEHYSMDDTASLKIPEQFRHAIWKGILDHRQLHEF, with -0.933 ± 0.078; and TDCSIVSFLARLGCSSCLDYFTTQGLTTIYQIEHYSMDDQASLKIPEQFRHAIWKGILDHRQLHEF, with -0.909 ± 0.08; and TDCSIVSFLARLGCSSCLDYFTTQGLTTIYQIEHYSMDDNASLKIPEQFRHAIWKGILDHRQLHEF, with -0.888 ± 0.13. Regarding TDCSIVSFLARLGCSSCLDYFTTQGLTTIYQIEHYSMDDSASLKIPEQFRHAIWKGILDHRQLHEF, the abundance fitness is -0.701 ± 0.038.

With TDCSIVSFLARLGCSSCLDYFTTQGLTTIYQIEHYSMDDYASLKIPEQFRHAIWKGILDHRQLHEF, the abundance fitness is -0.277 ± 0.041. Take TDCSIVSFLARLGCSSCLDYFTTQGLTTIYQIEHYSMDDPASLKIPEQFRHAIWKGILDHRQLHEF: the abundance fitness was -0.893 ± 0.062. TDCSIVSFLARLGCSSCLDYFTTQGLTTIYQIEHYSMDDVASLKIPEQFRHAIWKGILDHRQLHEF: the abundance fitness is -0.122 ± 0.02. In the case of TDCSIVSFLARLGCSSCLDYFTTQGLTTIYQIEHYSMDDLMSLKIPEQFRHAIWKGILDHRQLHEF, the abundance fitness is -0.088 ± 0.06. With TDCSIVSFLARLGCSSCLDYFTTQGLTTIYQIEHYSMDDLVSLKIPEQFRHAIWKGILDHRQLHEF, the abundance fitness is -0.002 ± 0.023.

As to TDCSIVSFLARLGCSSCLDYFTTQGLTTIYQIEHYSMDDLPSLKIPEQFRHAIWKGILDHRQLHEF, the abundance fitness is -0.734 ± 0.062. As for TDCSIVSFLARLGCSSCLDYFTTQGLTTIYQIEHYSMDDLISLKIPEQFRHAIWKGILDHRQLHEF, the abundance fitness came to 0.003 ± 0.041. As for TDCSIVSFLARLGCSSCLDYFTTQGLTTIYQIEHYSMDDLLSLKIPEQFRHAIWKGILDHRQLHEF, the abundance fitness is -0.06 ± 0.027. For TDCSIVSFLARLGCSSCLDYFTTQGLTTIYQIEHYSMDDLFSLKIPEQFRHAIWKGILDHRQLHEF, the abundance fitness was -0.1 ± 0.034.

Take TDCSIVSFLARLGCSSCLDYFTTQGLTTIYQIEHYSMDDLQSLKIPEQFRHAIWKGILDHRQLHEF: the abundance fitness was -0.008 ± 0.033. Then TDCSIVSFLARLGCSSCLDYFTTQGLTTIYQIEHYSMDDLKSLKIPEQFRHAIWKGILDHRQLHEF, with 0.008 ± 0.038; and TDCSIVSFLARLGCSSCLDYFTTQGLTTIYQIEHYSMDDLHSLKIPEQFRHAIWKGILDHRQLHEF, with -0.081 ± 0.047; and TDCSIVSFLARLGCSSCLDYFTTQGLTTIYQIEHYSMDDLSSLKIPEQFRHAIWKGILDHRQLHEF, with -0.04 ± 0.033. In the case of TDCSIVSFLARLGCSSCLDYFTTQGLTTIYQIEHYSMDDLRSLKIPEQFRHAIWKGILDHRQLHEF, the abundance fitness was -0.039 ± 0.025. For the variant TDCSIVSFLARLGCSSCLDYFTTQGLTTIYQIEHYSMDDLTSLKIPEQFRHAIWKGILDHRQLHEF, the abundance fitness was -0.028 ± 0.032. For TDCSIVSFLARLGCSSCLDYFTTQGLTTIYQIEHYSMDDLWSLKIPEQFRHAIWKGILDHRQLHEF, the abundance fitness was -0.111 ± 0.025. Consider TDCSIVSFLARLGCSSCLDYFTTQGLTTIYQIEHYSMDDLESLKIPEQFRHAIWKGILDHRQLHEF, for which the abundance fitness was -0.012 ± 0.028. As for TDCSIVSFLARLGCSSCLDYFTTQGLTTIYQIEHYSMDDLYSLKIPEQFRHAIWKGILDHRQLHEF, the abundance fitness was -0.103 ± 0.04. For TDCSIVSFLARLGCSSCLDYFTTQGLTTIYQIEHYSMDDLDSLKIPEQFRHAIWKGILDHRQLHEF, the abundance fitness was -0.035 ± 0.03. For the variant TDCSIVSFLARLGCSSCLDYFTTQGLTTIYQIEHYSMDDLGSLKIPEQFRHAIWKGILDHRQLHEF, the abundance fitness was -0.043 ± 0.023.

Consider TDCSIVSFLARLGCSSCLDYFTTQGLTTIYQIEHYSMDDLCSLKIPEQFRHAIWKGILDHRQLHEF, for which the abundance fitness worked out at 0.012 ± 0.036. Turning to TDCSIVSFLARLGCSSCLDYFTTQGLTTIYQIEHYSMDDLNSLKIPEQFRHAIWKGILDHRQLHEF, the abundance fitness is -0.024 ± 0.091.

(Values after the Human Domainome abundance scans (Beltran et al. 2025).)
